Experiments:
p97 (melanotransferrin) [1] = target: p97 (melanotransferrin) (UniProt P08582); assay: p97-coated plate, scFv-BLA culture broth, bound BLA activity (nitrocefin, 490 nm); ratio T1 (1 h dissociation)/T0 of mutant over parent; pH 7.4
p97 (melanotransferrin) [2] = target: p97 (melanotransferrin) (UniProt P08582); assay: p97-coated plate, scFv-BLA culture broth, bound BLA activity (nitrocefin, 490 nm); ratio T1 (1 h dissociation)/T0 of mutant over parent; pH 6.5

Chain of UniProt P08582 (P08582 20-709 limits assumed): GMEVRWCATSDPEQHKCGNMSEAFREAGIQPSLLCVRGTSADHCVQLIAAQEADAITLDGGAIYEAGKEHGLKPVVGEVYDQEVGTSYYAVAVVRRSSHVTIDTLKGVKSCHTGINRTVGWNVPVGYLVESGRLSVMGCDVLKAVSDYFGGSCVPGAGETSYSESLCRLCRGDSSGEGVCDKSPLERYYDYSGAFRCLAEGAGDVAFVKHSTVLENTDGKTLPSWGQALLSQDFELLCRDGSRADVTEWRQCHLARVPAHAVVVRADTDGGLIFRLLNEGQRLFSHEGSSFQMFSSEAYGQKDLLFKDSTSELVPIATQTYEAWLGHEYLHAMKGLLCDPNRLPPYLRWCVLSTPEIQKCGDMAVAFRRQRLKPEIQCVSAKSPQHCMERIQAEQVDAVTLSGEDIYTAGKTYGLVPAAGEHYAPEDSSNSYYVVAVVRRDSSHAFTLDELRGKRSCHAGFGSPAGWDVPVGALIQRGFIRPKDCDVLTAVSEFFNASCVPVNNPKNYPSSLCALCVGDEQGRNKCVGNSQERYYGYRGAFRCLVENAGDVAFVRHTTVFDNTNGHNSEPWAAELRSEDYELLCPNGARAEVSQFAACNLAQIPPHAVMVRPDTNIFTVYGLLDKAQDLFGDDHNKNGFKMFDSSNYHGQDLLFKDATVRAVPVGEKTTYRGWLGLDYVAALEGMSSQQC

Substance	Index pH7.4 (p97 (melanotransferrin) [1])	Index pH6.5 (p97 (melanotransferrin) [2])
ME59 (SGN-17 scFv-BLA, light chain Q94 to His)	0.28	–
ME64 (SGN-17 scFv-BLA, light chain P99 to His)	0.35	–
ME55 (SGN-17 scFv-BLA, heavy chain Y108 to His)	0.8	0.7
ME48 (SGN-17 scFv-BLA, heavy chain A101 to His)	0.49	0.33
ME66 (SGN-17 scFv-BLA, light chain T101 to His)	1.36	1.73
ME46 (SGN-17 scFv-BLA, heavy chain T99 to His)	0.38	0.09
ME63 (SGN-17 scFv-BLA, light chain V98 to His)	0.21	–
ME47 (SGN-17 scFv-BLA, heavy chain L100 to His)	0.24	–
ME44 (SGN-17 scFv-BLA, heavy chain R97 to His)	0.24	–
ME43 (SGN-17 scFv-BLA, heavy chain K64 to His)	0.61	0.65
ME53 (SGN-17 scFv-BLA, heavy chain M106 to His)	0.97	0.8
ME60 (SGN-17 scFv-BLA, light chain S95 to His)	1.04	1.09
ME54 (SGN-17 scFv-BLA, heavy chain D107 to His)	0.41	0.7
ME58 (SGN-17 scFv-BLA, light chain R58 to His)	0.92	0.76
ME61 (SGN-17 scFv-BLA, light chain T96 to His)	0.82	0.81
ME51 (SGN-17 scFv-BLA, heavy chain Y104 to His)	0.26	–
ME56 (SGN-17 scFv-BLA, heavy chain W109 to His)	0.57	0.41
ME50 (SGN-17 scFv-BLA, heavy chain Y103 to His)	0.33	–

From patent EP2107116A2
